{"source": "patent US20090123474A1", "about": "“COMBINATION OF ANGIOPOIETIN-2 ANTAGONIST AND OF VEGF-A, KDR AND/OR FLTL ANTAGONIST FOR TREATING CANCER” (ASTRAZENECA AB, priority 2005, published 2009)", "molecules": {"B1": {"name": "mAb 3.19.3: fully human anti-Angiopoietin-2 monoclonal antibody, variable regions SEQ ID NO: 5-8; also binds Angiopoietin-1 (antibody, V domains shown)", "VH": "QVQLVESGGGVVQPGRSLRLSCAASGFTFTNYGMHWGRQAPGKGLEWVAVISHDGNNKYYVDSVKGRFTISRDNSKNTLYLQMNSLRAEDTAVYYCAREGIDFWSGLNWFDPWGQGTLVTVSSA", "VL": "EIVLTQSPGTLSLSPGERATLSCRASQSITGSYLAWYQQKPGQAPRLLICGASSWATGIPDRFSGSGSGTDFTLTISRLEPEDFAVYYCQQYSSSPITFGQGTRLEIKR"}}, "key": {"Angiopoietin-1": {"target": "T1, Angiopoietin-1 (Homo sapiens, UniProt Q15389)", "T1 construct": "purchased R&D Systems 293-AN-025/CF", "T1 sequence (Q15389 16-498)": "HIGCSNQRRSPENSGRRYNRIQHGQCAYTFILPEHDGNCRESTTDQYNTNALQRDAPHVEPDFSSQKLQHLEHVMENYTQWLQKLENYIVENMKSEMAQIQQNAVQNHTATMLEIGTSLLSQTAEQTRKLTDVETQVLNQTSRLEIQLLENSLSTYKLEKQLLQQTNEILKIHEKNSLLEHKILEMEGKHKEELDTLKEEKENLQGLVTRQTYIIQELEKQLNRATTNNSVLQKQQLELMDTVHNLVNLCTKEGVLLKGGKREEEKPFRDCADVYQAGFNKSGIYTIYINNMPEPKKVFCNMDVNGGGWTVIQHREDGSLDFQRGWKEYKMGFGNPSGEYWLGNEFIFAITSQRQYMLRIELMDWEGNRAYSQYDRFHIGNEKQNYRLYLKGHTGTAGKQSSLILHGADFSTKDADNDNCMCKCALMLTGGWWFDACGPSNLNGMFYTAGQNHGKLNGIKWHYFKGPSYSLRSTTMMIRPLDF", "experiment": "Biacore (SPR) medium resolution screen of mAb binding to Angiopoietin-1", "method": "The cross-reactivity of the antibody to Angiopoietin-1 was further investigated by measuring the affinity of the mAbs to Angiopoietin-1. Instead of immobilizing Angiopoietin-1, as described in ELISA-based counter-binding, the mAbs were immobilized to the CM5 Biacore chips, and Angiopoietin-1 in solution was injected for the determination of the on-rate and off-rate. Six mAbs; 3.3.2, 3.31.2, 5.16.3, 5.86.1, 5.88.3 and 3.19.3 were tested.\nLabel-free surface plasmon resonance (SPR), or Biacore 2000 instrumentation, was utilized to measure antibody affinity to Angiopoietin-1. For this purpose, a high-density goat α-human antibody surface over a CM5 Biacore chip was prepared using routine amine coupling. For developmental experiments, purified mAbs (clones 3.3.2, 3.31.2, 5.16.3, 5.86.1, 5.88.3 and 3.19.3) were diluted to approximately 2.5-3.5 μg/ml in HBS-P running buffer containing 100 μg/ml BSA. The capture level for each mAb was approximately 150 RU. A 5-minute wash followed each capture cycle to stabilize the mAb baseline. A single Angiopoietin-1 sample diluted to 87.4 nM in the running buffer was injected for one minute over all capture surfaces. […] This experiment was repeated by increasing the mAb capture levels to well over 500-600 RU and injecting 380 nM Angiopoietin-1 for one minute. Angiopoietin-1 was again found to bind mAb 3.19.3."}, "[1]": {"tested_on": "A431 human tumour xenografts", "experiment": "A431 xenograft efficacy study (Study A)", "type": "in vivo", "conditions": "3.19.3 10 mg/kg 2×wk i.p., VTKI 3 mg/kg/day p.o.", "method": "(§1) The anti-tumor activity of monoclonal antibody 3.19.3 in combination with the VTKI 4-(4-fluoro-2-methylindol-5-yloxy)-6-methoxy-7-(3-piperidinopropoxy)quinazoline was evaluated in a xenograft model of human skin epidermoid carcinoma (Study A) and in a model of colorectal cancer (Study B) by using the A431 and Colo205 cell lines respectively.\n(§2) A431 and Colo205 cells were cultured in flasks as routine until the cells reached sub-confluence. Immunodeficient 6-8 week old female mice (Ncr/nu/nu) were used. The cells were harvested and suspended in Matrigel. A cell suspension containing 1 to 5×10^6 cells was injected subcutaneously into the flank of the mice. The mice were randomized into different groups, each containing 10-15 mice. When the tumour volume reached 200 mm^3, the mice were randomized in each groups and the treatments were initiated. mAb 3.19.3 10 mg/kg in saline was injected intraperitoneally, twice per week for 2 weeks. 4-(4-fluoro-2-methylindol-5-yloxy)-6-methoxy-7-(3-piperidinopropoxy)quinazoline was treated peroral daily at doses ranging from 1.5 to 6 mg/kg in water containing 1% Tween80. The dimensions of each tumor were measured twice per week. The volume of the tumor was calculated as: Volume=Length×(Width)^2×0.5 (cm^3)."}, "[2]": {"tested_on": "human Colo205 colon tumour xenografts", "experiment": "Colo205 xenograft efficacy study (Study B)", "type": "in vivo", "conditions": "3.19.3 10 mg/kg 2×wk i.p., VTKI 6 mg/kg/day p.o.", "method": "as §1, §2"}, "[3]": {"tested_on": "human SW620 colon tumour xenografts", "experiment": "SW620 xenograft efficacy study", "type": "in vivo", "conditions": "3.19.3 10 mg/kg 2×wk i.p., DC101 15 mg/kg 2×wk i.p., 3 weeks", "method": "The anti-tumor activity of mAb 3.19.3 was evaluated in combination with monoclonal antibody DC101 which is directed against VEGFR-2/KDR, in the SW620 colorectal cancer xenograft model. Briefly, SW620 cells were cultured under routine tissue culture conditions in flasks until the cells reached sub-confluence. Immunodeficient 8-10 week old NCr nude mice were used, and cell suspensions containing approximately 1×10^6 cells were injected subcutaneously into the right flank of the mice. After the tumour volumes reached 100 mm^3, the mice were randomized in groups and the treatments were initiated. The mAb 3.19.3 10 mg/kg in saline was injected intraperitoneally, twice per week for 3 weeks. The mAb DC101 15 mg/kg in saline was also injected intraperitoneally, following the same schedule of twice per week for 3 weeks. The dimensions of each tumor were measured twice per week. The volume of the tumor was calculated as: Volume=Length×(Width)^2×0.5 (cm^3)."}}}
{"molecule": "B1", "values": [{"measurement": "binding of Angiopoietin-1 to captured mAb", "setting": "Angiopoietin-1; 87.4 nM Angiopoietin-1, capture level approximately 150 RU", "value": "found to bind"}, {"measurement": "binding of Angiopoietin-1 to captured mAb", "setting": "Angiopoietin-1; 380 nM Angiopoietin-1, capture levels over 500-600 RU", "value": "found to bind"}, {"measurement": "% tumor growth inhibition", "setting": "[1]", "value": 46, "unit": "%"}, {"measurement": "% inhibition", "setting": "[2]", "value": 35, "unit": "%"}, {"measurement": "tumour inhibition", "setting": "[3]", "value": 48, "unit": "%"}]}
